Experimental data reported in patent US20210122814A1.

How the values were obtained:
[1] = target: Cell-associated proTGFβ1 (hGARP-proTGFβ1 and hLRRC33-proTGFβ1); assay: BLI (Octet)
[2] = target: Matrix-associated proTGFβ1 (hLTBP1-proTGFβ1 and hLTBP3-proTGFβ1); assay: BLI (Octet)
[3] = target: Cell-associated proTGFβ1 (hGARP-proTGFβ1 and hLRRC33-proTGFβ1); assay: BLI (Octet); Cell AVRG over ECM AVRG
[4] = target: Cell-associated proTGFβ1 (hGARP-proTGFβ1 and hLRRC33-proTGFβ1); assay: MSD-SET, hIgG4
[5] = target: Matrix-associated proTGFβ1 (hLTBP1-proTGFβ1 and hLTBP3-proTGFβ1); assay: MSD-SET, hIgG4
[6] = target: Cell-associated proTGFβ1 (hGARP-proTGFβ1 and hLRRC33-proTGFβ1); assay: MSD-SET, hIgG4; Cell AVRG over ECM AVRG

| Cell AVRG (average KD) [1] | ECM AVRG (average KD) [2] | G/D (fold bias) [3] | Cell AVRG (average KD) [4] | ECM AVRG (average KD) [5] | G/D (fold bias) [6] | Binder |
| --- | --- | --- | --- | --- | --- | --- |
| 0.644 nM | 0.246 nM | 2.61 fold |  |  |  | Ab21 (antibody, V domains shown) VH: EVQLVESGGGLVQPGGSLRLSCAASGFTFSSFSMDWVRQAPGKGLEWVSYISPDASTIYYADSVKGRFTISRDNAKNSLYLQMNSLRAEDTAVYYCARGVLDYGDMLDPWGQGTLVTVSS VL: DIQMTQSPSSLSASVGDRVTITCQASQDITNYLNWYQQKPGKAPKLLIYDASNLETGVPSRFSGSGSGTDFTFTISSLQPEDIATYYCQQADNHPPWTFGGGTKVEIK |
| 0.302 nM | 0.145 nM | 2.08 fold | 0.027 nM | 0.009 nM | 3 fold | Ab33 (antibody, V domains shown) VH: EVQLVESGGGLVQPGGSLRLSCAASGFTFSSFSMNWVRQAPGKGLEWVSYISPSADTIYYADSVKGRFTISRDNAKNTLYLQMNSLRAEDTAVYYCAHGVLDYGDMLDPWGQGTLVTVSS VL: DIQMTQSPSSLSASVGDRVTITCQASQDITNYLNWYQQKPGKAPKLLIYDASNLETGVPSRFSGSGSGTDFTFTISSLQPEDIATYYCQQADNHPPWTFGGGTKVEIK |
| 0.695 nM | 0.324 nM | 2.15 fold | 0.114 nM | 0.042 nM | 2.71 fold | Ab22 (antibody, V domains shown) VH: EVQLVESGGGLVQPGGSLRLSCAASGFTFGSFSMNWVRQAPGKGLEWVSYIHSDASTIYYADSVKGRFTISRDNAKNSLYLQMNSLRAEDTAVYYCARGVLDYGDMLDPWGQGTLVTVSS VL: DIQMTQSPSSLSASVGDRVTITCQASQDITNYLNWYQQKPGKAPKLLIYDASNLETGVPSRFSGSGSGTDFTFTISSLQPEDIATYYCQQADNHPPWTFGGGTKVEIK |
| 0.537 nM | 0.222 nM | 2.42 fold | 0.1 nM | 0.023 nM | 4.35 fold | Ab24 (antibody, V domains shown) VH: EVQLVESGGGLVQPGRSLRLSCAASGFTFSSFAMYWVRQAPGKGLEWVSYISPDASTIYYADSVKGRFTISRDNAKNSLYLQMNSLRAEDTAVYYCARGVLDYGDMLDPWGQGTLVTVSS VL: DIQMTQSPSSLSASVGDRVTITCQASQDITNYLNWYQQKPGKAPKLLIYDASNLETGVPSRFSGSGSGTDFTFTISSLQPEDIATYYCQQADNHPPWTFGGGTKVEIK |
| 0.492 nM | 0.197 nM | 2.5 fold | 0.072 nM | 0.026 nM | 2.77 fold | Ab26 (antibody, V domains shown) VH: EVQLVESGGGLVQPGGSLRLSCAASGFTFSSFSMDWVRQAPGKGLEWVSYISPDASTIYYADSVKGRFTISRDNAKNTLYLQMNSLRAEDTAVYYCARGVLDYGDMLDPWGQGTLVTVSS VL: DIQMTQSPSSLSASVGDRVTITCQASQDITNYLNWYQQKPGKAPKLLIYDASNLETGVPSRFSGSGSGTDFTFTISSLQPEDIATYYCQQADNHPPWTFGGGTKVEIK |
| 0.304 nM | 0.155 nM | 1.97 fold | 0.024 nM | 0.012 nM | 2 fold | Ab29 (antibody, V domains shown) VH: EVQLVESGGGLVQPGRSLRLSCAASGFTFSSFAMNWVRQAPGKGLEWVSYISPDASTIYYAGSVKGRFTISRDNAKNSLYLQMNSLRAEDTAVYYCVRAVLDYGDMLDPWGQGTLVTVSS VL: DIQMTQSPSSLSASVGDRVTITCQASQDITNYLNWYQQKPGKAPKLLIYDASNLETGVPSRFSGSGSGTDFTFTISSLQPEDIATYYCQQADNHPPWTFGGGTKVEIK |
| 0.684 nM | 0.296 nM | 2.31 fold | 0.081 nM | 0.029 nM | 2.8 fold | Ab30 (antibody, V domains shown) VH: EVQLVESGGGLVQPGGSLRLSCAASGFTFSSFSMDWVRQAPGKGLEWVSYISPDASTIYYADSVKGRFTISRDNAKNSLYLQMNSLRAEDTAVYYCARGTLDYGDMLDPWGQGTLVTVSS VL: DIQMTQSPSSLSASVGDRVTITCQASQDITNYLNWYQQKPGKAPKLLIYDASNLETGVPSRFSGSGSGTDFTFTISSLQPEDIATYYCQQADNHPPWTFGGGTKVEIK |
| 0.495 nM | 0.208 nM | 2.38 fold | 0.058 nM | 0.017 nM | 3.41 fold | Ab31 (antibody, V domains shown) VH: EVQLVESGGGLVQPGGSLRLSCAASGFTFSSFSMDWVRQAPGKGLEWVSYISPDASTIYYADSVKGRFTISRDNAKNTLYLQMNSLRAEDTAVYYCARAVLDYGDMLDPWGQGTLVTVSS VL: DIQMTQSPSSLSASVGDRVTITCQASQDITNYLNWYQQKPGKAPKLLIYDASNLETGVPSRFSGSGSGTDFTFTISSLQPEDIATYYCQQADNHPPWTFGGGTKVEIK |
| 0.597 nM | 0.242 nM | 2.47 fold | 0.051 nM | 0.032 nM | 1.6 fold | Ab32 (antibody, V domains shown) VH: EVQLVESGGGLVQPGGSLRLSCAASGFTFSSFSMNWVRQAPGKGLEWVSYISPSADTIYYADSVKGRFTISRDNAKNTLYLQMNSLRAEDTAVYYCARGVWDMGDMLDPWGQGTLVTVSS VL: DIQMTQSPSSLSASVGDRVTITCQASQDITNYLNWYQQKPGKAPKLLIYDASNLETGVPSRFSGSGSGTDFTFTISSLQPEDIATYYCQQADNHPPWTFGGGTKVEIK |
|  |  |  | 2.3 nM | 5.05 nM | 0.42 fold | Ab4 (antibody, IgG4, V domains shown) VH: EVQLVESGGGLVQPGGSLRLSCAASGFTFSSYSMNWVRQAPGKGLEWVSYISSSSSTIYYADSVKGRFTISRDNAKNSLYLQMNSLRAEDTAVYYCARGVLDYGDMLDPWGQGTLVTVSS VL: DIQMTQSPSSLSASVGDRVTITCQASQDITNYLNWYQQKPGKAPKLLIYDASNLETGVPSRFSGSGSGTDFTFTISSLQPEDIATYYCQQADNHPPWTFGGGTKVEIK |
| 0.897 nM | 0.443 nM | 2.03 fold |  |  |  | Ab23 (antibody, V domains shown) VH: EVQLVESGGGLVQPGGSLRLSCAASGFTFSSFSMNWVRQAPGKGLEWVSYISPSADTIYYADSVKGRFTISRDNAKNTLYLQMNSLRAEDTAVYYCARGVLDYGDMLDPWGQGTLVTVSS VL: DIQMTQSPSSLSASVGDRVTITCQASQDITNYLNWYQQKPGKAPKLLIYDASNLETGVPSRFSGSGSGTDFTFTISSLQPEDIATYYCQQADNHPPWTFGGGTKVEIK |
| 0.449 nM | 0.184 nM | 2.43 fold |  |  |  | Ab25 (antibody, V domains shown) VH: EVQLVESGGGLVQPGGSLRLSCAASGFTFGSFSMDWVRQAPGKGLEWVSYISPDASTIYYADSVKGRFTISRDNAKNSLYLQMNSLRAEDTAVYYCARGVLDYGDMLDPWGQGTLVTVSS VL: DIQMTQSPSSLSASVGDRVTITCQASQDITNYLNWYQQKPGKAPKLLIYDASNLETGVPSRFSGSGSGTDFTFTISSLQPEDIATYYCQQADNHPPWTFGGGTKVEIK |
| 0.361 nM | 0.208 nM | 1.74 fold |  |  |  | Ab27 (antibody, V domains shown) VH: EVQLVESGGGLVQPGGSLRLSCAASGFTFSFYAMNWVRQAPGKGLEWVSYISPDASTIYYADSVKGRFTISRDNAKNSLYLQMNSLRAEDTAVYYCARGVLDYGDMLDPWGQGTLVTVSS VL: DIQMTQSPSSLSASVGDRVTITCQASQDITNYLNWYQQKPGKAPKLLIYDASNLETGVPSRFSGSGSGTDFTFTISSLQPEDIATYYCQQADNHPPWTFGGGTKVEIK |
| 0.603 nM | 0.328 nM | 1.84 fold |  |  |  | Ab28 (antibody, V domains shown) VH: EVQLVESGGGLVQPGGSLRLSCAASGFTFSSFSMDWVRQAPGKGLEWVSYISPDASTIYYADSVKGRFTISRDNAKNSLYLQMNSLRAEDTAVYYCVRGVLDYGDMLDPWGQGTLVTVSS VL: DIQMTQSPSSLSASVGDRVTITCQASQDITNYLNWYQQKPGKAPKLLIYDASNLETGVPSRFSGSGSGTDFTFTISSLQPEDIATYYCQQADNHPPWTFGGGTKVEIK |
